Values belong to the molecule of their own block, whether it stands above or below them. Residues, ends and D or L forms follow the SMILES beside them. No end group written: not given here. *: point of attachment. FITC = O=C1OC2(c3ccc(O)cc3Oc3cc(O)ccc32)c2ccc(NC(=S)*)cc21; fluorescein = fluorescein label on the N-terminus
Tests used:
[1] = test system: PEX19 CTD I195K; assay: Fluorescence polarization, ALDP peptide binding to PEX19 CTD I195K; set-up: species or system human; details: with or without farnesylation, FITC-labelled ALDP peptide 20 nM, triplicate (n = 3)
Procedure: (§1) ALDP peptide (62-AAKAGMNRVFLQRLL-76) fused N-terminally with fluorescein isothiocyanate (FITC), was purchased from Peptide Specialty Laboratories GmbH. The lyophilized powder was dissolved in 1 ml water resulting in a 5 mM stock solution. Overnight dialysis against buffer containing 50 mM Tris pH 8.0, 50 mM NaCl, removed trifluoroacetate counterions. For the determination of each binding curve a 12 point titration was performed with constant concentration of 20 nM labelled peptide with increasing concentrations of PEX19 CTD variants. Starting concentration of PEX19 CTD was 1 mM with 12 serial dilutions reaching 0.5 μM. Reaction mixtures were then transferred into 96-well Optiplate and measured as triplicates in PerkinElmer EnVision plate reader. […]
(§2) Supplementary Figure 6: ALDP af finity measurement for PEX19 CTD proteins using a fluorescence polarization assay . Polarization plots as a function of protein concentration for the direct titration of PEX19 non-farnesylated (black) and farnesylated (red) forms (wild type and residue spedific mutants) into fluorescein-labeled ALDP peptide. […]
(§3) (also on this page, place not known: assay. affinity Fluorescence polarization (mP) wt wtfarn Fluorescence polarization (mP) M179Rfarn 0.00 1.00 Fluorescence polarization (mP) M255Rfarn 0.00 1.00 Fluorescence polarization (mP) I195Kfarn Kd Kd /uni03BCM)

[2] = test system: PEX19 CTD M255R; assay: Fluorescence polarization, ALDP peptide binding to PEX19 CTD M255R; set-up: species or system human; details: with or without farnesylation, FITC-labelled ALDP peptide 20 nM, triplicate (n = 3)
Procedure: as §1, §2, §3

[3] = biological target: T1, farnesylated wild type PEX19 CTD (Homo sapiens, UniProt P40855); assay: Fluorescence polarization, ALDP peptide binding to farnesylated wild type PEX19 CTD; details: ratio farnesylated vs non-farnesylated wild type PEX19 CTD
T1 construct: we studied the human PEX19 CTD (residues 161–299) that includes the native C-terminus; hexahistidine (TEV-cleavable) (cleaved yes); made in house; host or cells: Escherichia coli BL21 (DE3); farnesylated in vitro with recombinant S. cerevisiae farnesyl transferase
T1 sequence (P40855 161-299): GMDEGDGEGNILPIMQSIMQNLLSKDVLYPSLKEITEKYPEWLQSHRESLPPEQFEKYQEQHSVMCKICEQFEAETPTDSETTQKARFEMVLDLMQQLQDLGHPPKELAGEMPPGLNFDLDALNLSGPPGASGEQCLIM
Procedure: as §1, §2
standard deviations for triplicate measurements (n = 3).
as §3

[4] = test system: PEX19 CTD M179R; assay: Fluorescence polarization, ALDP peptide binding to PEX19 CTD M179R; set-up: species or system human; details: with or without farnesylation, FITC-labelled ALDP peptide 20 nM, triplicate (n = 3)
Procedure: as §1, §2, §3

[5] = biological target: FITC-labelled ALDP peptide (62-…-76) (human); assay: fluorescence polarisation; 20 nM FITC-ALDP peptide constant, 12-point titration of PEX19 CTD variants from 1 mM to 0.5 uM; 50 mM Tris pH 8.0, 50 mM NaCl; triplicates
[6] = NMR 13C secondary chemical shifts (peptide conformation); type: physicochemical; details: C-terminally extended version of the ALDP peptide with additional tryptophan (residue 68 to 82)
Text: Phe71 aromatic ring protons
Residue number Leucine residue
Supplementary Figure 8: Intermolecular NOEs between PEX19 CTD and the ALDP peptide, and secondary structure of the latter. (a) 1H,1H plane of a 3D ω1-filtered, ω2-edited 13C-NOESY-HSQC experiment of farnesylated PEX19 CTD free (black) and bound to the ALDP peptide (red). Methyl and methylene protons of the unlabeled farnesyl group of the PEX19 CTD show NOEs with protons of the isotope-labeled farnesylated PEX19 CTD (black circles). In the presence of also unlabeled ALDP peptide additional intermolecular methyl-methyl and aliphatic-aromatic NOEs are observed (red circles and below). (b) NMR 13C secondary chemical shifts of a C-terminally extended […]
tion. (c) Due to signal overlap, 5 out of 7 spin systems for leucine residues were assigned. Nevertheless, also the leucines residues adopt a helical conformation.
(also on this page, place not known: (Leu75)(Leu76) (Leu81)(Leu82) 5 LeuC Cα- Cβ [p.p.m.] Cα- Cβ [p.p.m.] c ω2 ω1 1H (p.p.m.) ω1 1H (p.p.m.) QDPro273/Pro274 { - - { 5)

[7] = biological target: T2, farnesylated PEX19 CTD (Homo sapiens, UniProt P40855); assay: NMR titration of farnesylated PEX19 CTD with PMP peptides; type: binding; details: 1H,15N HSQC, 298 K, ALDP at 5 and 10 molar ratio with 100 μM PEX19 CTD, PEX13 at 1:1.5 and 1:0.5 with 50 μM
T2 construct: we studied the human PEX19 CTD (residues 161–299) that includes the native C-terminus; hexahistidine (TEV-cleavable) (cleaved yes); made in house; host or cells: Escherichia coli BL21 (DE3); farnesylated in vitro with recombinant S. cerevisiae farnesyl transferase
T2 sequence (P40855 161-299): T1 sequence (P40855 161-299)

[8] = biological target: T3, farnesylated human PEX19 C-terminal domain (residues 161-299) (human, UniProt P40855 161-299, farnesyl group on Cys296 (CaaX box)); assay: MST; fluorescein-PEX11B peptide (200 nM stock) constant, unlabelled PEX19 CTD serially diluted from 612 uM to 18 nM; 20 mM potassium phosphate pH 6.5, 50 mM NaCl, 20% methanol, 0.1% Tween; three measurements; details: both partners purified
T3 construct: Peroxisomal biogenesis factor 19 (PEX19), human, C-terminal domain, residues 161-299, farnesylated at Cys296; Virtually complete farnesylation by SDS-PAGE and NMR; Isotope-labelled for NMR; also called farnesylated PEX19 CTD; source: E. coli BL21 (DE3), purified; farnesylated in vitro with S. cerevisiae farnesyl transferase, then Ni-NTA and Superdex 75
T3 sequence (looked up): T1 sequence (P40855 161-299)

[9] = biological target: T4, non-farnesylated human PEX19 C-terminal domain (residues 161-299) (human, UniProt P40855 161-299); assay: as above; details: both partners purified
T4 construct: Peroxisomal biogenesis factor 19 (PEX19), human, C-terminal domain, residues 161-299 with the native C-terminus and CaaX box; 15N- (or 13C/2H-) labelled for NMR; Expressed from pETM11; also called PEX19 CTD; non-farnesylated PEX19 CTD; source: E. coli BL21 (DE3), purified (Ni-NTA, TEV cleavage, size-exclusion chromatography)
T4 sequence (looked up): T1 sequence (P40855 161-299)

[10] = biological target: T5, non-farnesylated human PEX19 C-terminal domain (residues 161-299) (human, UniProt P40855 161-299); assay: FP
T5 chain: T1 sequence (P40855 161-299)

[11] = biological target: T6, farnesylated human PEX19 C-terminal domain (residues 161-299) (human, UniProt P40855 161-299, farnesyl group on Cys296 (CaaX box)); assay: FP; farnesylated PEX19
T6 chain: T1 sequence (P40855 161-299)

[12] = test system: peroxisome biogenesis in cells; details: ref Sacksteder et al, Gould J Cell Biol 2000; cited from earlier work
Text: page 14: remnants (and this is also what can be seen in these figures). To improve clarity and avoid confusion, the authors should correct these mistakes. […] The sentence on page 9 now reads “Cells that are not complemented by functional PEX19 show a cytosolic mislocalization of the peroxisomal marker protein GFP-PTS1 and a diffuse background immunolabelling of the peroxisomal membrane protein PEX14 that is different from the peroxisomal pattern and known to be due to mislocalization to mitochondria (Fig. 5c, ΔPEX19).” Accordingly, the legend of Figure 5 ...

[13] = test system: PEX19-deficient human fibroblasts (ΔPEX19 T); assay: Functional complementation of PEX19-deficient fibroblasts (peroxisomal protein import); type: cell-based; details: full-length PEX19 variants; 72 h after transfection; at least 100 cells in three independent transfections; series of Fig. 3c
Text: A bicistronic expression plasmid coding for eGFP-PTS1 and non-tagged PEX14 (pMF1220)[43] was kindly provided by Marc Fransen (Leuven, Belgium). pIRES2-HsPEX19-eGFP-PTS1 was constructed by replacing the open reading frame of PEX14 (BglII/SalI) with a DNA-cassette encoding the full-length open reading frame of human PEX19 as derived from BamHI/SalI digestion of pAH05 (ref. [44]). Single point mutations were introduced into the PEX19 sequence by Quickchange XL Site-directed Mutagenesis kit (Stratagene) using primer pairs (Supplementary Table 1). The bicistronic expression vectors coding for PEX19 variants and eGFP-PTS1 were transfected into the human cell-line ΔPEX19 T which was derived from PEX19-deficient Zellweger patient fibroblasts. ΔPEX19 T cells, characterized by a defect in peroxisome biogenesis were routinely authenticated by functional complementation assays as described below and checked for mycoplasma contamination using Venor GeM Advance Mycoplasm Detection Kit (Minerva Biolabs). The efficiency of transfection according to the Amaxa Cell Line Nucleofector Kit R protocol (Lonza Cologne AG) was always around 90%. After 72 h of transfection, cells were subjected to fluorescence and immunofluorescence microscopy using polyclonal antiserum against human PEX14 (ref. [45]) (1:400 diluted) or monoclonal antibodies against human PEX19 (BD Biosciences, MA5-17266 Thermo Scientific; 1:400 diluted). Statistical analysis was carried out from three independent transfections of each pIRES-PEX19-eGFP-PTS1 expression plasmid. Based on the appearance of eGFP-PTS1 fluorescence pattern, about 100 cells of each experiment were visually categorized into three classes, (i) full complementation of peroxisomal import as visualized by punctuate staining pattern, (ii) partial complementation as indicated by diffuse cytosolic staining with few dots, (iii) no complementation resulting in only cytosolic staining. All micrographs were recorded on a Zeiss Axioplan 2 microscope with a Zeiss Plan-Apochromat × 63/1.4 oil objective and an Axiocam MR digital camera, and were processed with AxioVision 4.6 software (Zeiss, Jena, Germany). The steady-state level of PEX19 expression was assessed by immunoblot analysis, using monoclonal mouse antibodies against HsPEX19 (BD Biosciences, MA5-17266; 1:1,000 diluted) (Supplementary Fig. 9).

Molecule: C-terminally extended: C-terminally extended version of the ALDP peptide, which harbors an additional tryptophan (residue 68 to 82) (NRVFLQRLLWLLRLL; UniProt P33897 68-82, looked up, fragment)
helical conformation of free peptide [6]: largely helical conforma

B2: FITC-labelled ALDP peptide (62-AAKAGMNRVFLQRLL-76) (peptide)
peptide: {FITC}-AAKAGMNRVFLQRLL
Kd [10]: 262 µM | Kd [11]: 36 µM

B3: PEX19/C296A: human PEX19 with a mutation of the farnesylation site (Sacksteder et al) (protein, UniProt P40855 2-296, looked up, variant C296A)
Peroxisomal biogenesis factor …: AAAEEGCSVGAEADRELEELLESALDDFDKAKPSPAPPSTTTAPDASGPQKRSPGDTAKDALFASQEKFFQELFDSELASQATAEFEKAMKELAEEEPHLVEQFQKLSEAAGRVGSDMTSQQEFTSCLKETLSGLAKNATDLQNSSMSEEELTKAMEGLGMDEGDGEGNILPIMQSIMQNLLSKDVLYPSLKEITEKYPEWLQSHRESLPPEQFEKYQEQHSVMCKICEQFEAETPTDSETTQKARFEMVLDLMQQLQDLGHPPKELAGEMPPGLNFDLDALNLSGPPGASGEQA
functional complementation, % of the activity of wild-type PEX19 [12]: ~80%

B4: wild type PEX19: full-length wild type human PEX19 expressed in fibroblasts (protein, UniProt P40855 1-299, looked up)
chain: MAAAEEGCSVGAEADRELEELLESALDDFDKAKPSPAPPSTTTAPDASGPQKRSPGDTAKDALFASQEKFFQELFDSELASQATAEFEKAMKELAEEEPHLVEQFQKLSEAAGRVGSDMTSQQEFTSCLKETLSGLAKNATDLQNSSMSEEELTKAMEGLGMDEGDGEGNILPIMQSIMQNLLSKDVLYPSLKEITEKYPEWLQSHRESLPPEQFEKYQEQHSVMCKICEQFEAETPTDSETTQKARFEMVLDLMQQLQDLGHPPKELAGEMPPGLNFDLDALNLSGPPGASGEQCLIM
modifications: full-length
notes: full-length wild type human PEX19 expressed in fibroblasts
cells with rescue of peroxisome biogenesis [12]: ~50% | cells showing restored peroxisomal protein transport (functional complementation) [13]: 60%

Now from value to molecule, other results behind:

binding to PEX19 CTD I195K [1]: impaired binding | binding to PEX19 CTD M255R [2]: impaired binding | increase in affinity upon farnesylation of wild type PEX19 CTD [3]: seven | binding to PEX19 CTD M179R [4]: impaired binding
Molecule: CSCC[C@H](NC(=O)CNC(=O)[C@H](C)NC(=O)[C@H](CCCCN)NC(=O)[C@H](C)NC(=O)[C@H](C)NC(=S)Nc1ccc2c(c1)C(=O)OC21c2ccc(O)cc2Oc2cc(O)ccc21)C(=O)N[C@@H](CC(N)=O)C(=O)N[C@@H](CCCNC(=N)N)C(=O)N[C@H](C(=O)N[C@@H](Cc1ccccc1)C(=O)N[C@@H](CC(C)C)C(=O)N[C@@H](CCC(N)=O)C(=O)N[C@@H](CCCNC(=N)N)C(=O)N[C@@H](CC(C)C)C(=O)N[C@@H](CC(C)C)C(=O)O)C(C)C [fluorescein-labeled ALDP peptide] ({FITC}-AAKAGMNRVFLQRLL-OH; C-terminus assumed)

fold increase in affinity over non-farnesylated PEX19 CTD [5]: 7 fold
Molecule: farnesylated human PEX19 C-terminal domain (residues 161-299) (from UniProt P40855 161-299) (domain or fragment)

NMR chemical shift perturbations / line broadening of farnesylated PEX19 CTD [7]: severe line broadening
Molecule: HFTKVFSAFALVRTIR [PEX13 peptide, peptide derived from the PMP PEX13]
NMR chemical shift perturbations / line broadening of farnesylated PEX19 CTD ([7]; listed as PEX13): even stronger NMR chemical shift perturbation changes to helix α1, and significant line broadening in the lid region

Kd [8]: 6.1 ± 0.4 µM | Kd [9]: 29.8 ± 1.6 µM
B1: N-terminally fluorescein-labelled PEX11B peptide (residues 186-200 of human PEX11B) (peptide)
peptide: fluorescein-LALKLRLQVLLLARV
notes: PEX11B, human, residues 186-200; also called PEX11-derived peptide; source: bought: Peptide Specialty Laboratories GmbH, Heidelberg

From publication PMC5353646, “Allosteric modulation of peroxisomal membrane protein recognition by farnesylation of the peroxisomal import receptor PEX19” (Nature Communications, 2017)
